Measurements as given in PMC7673798 (Science Advances, 2020).

Biological target: the molecule itself
Test: cryo-EM structure

B1: OpuA polypeptide with the nucleotide-binding domain (NBD) fused to a tandem CBS domain, E190Q (natural protein, Lactococcus lactis, UniProt Q9KIF7 1-408, looked up)
chain: MPVKIKIEHLTKIFGKRIKTALTMVEKGEPKNEILKKTGATVGVYDTNFEINEGEIFVIMGLSGSGKSTLLRLLNRLIEPTSGKIFIDNQDVATLNKEDLLQVRRKTMSMVFQNFGLFPHRTILENTEYGLEVQNVPKEERRKRAEKALDNANLLDFKDQYPKQLSGGMQQRVGLARALANDPEILLMDQAFSALDPLIRREMQDELLELQAKFQKTIIFVSHDLNEALRIGDRIAIMKDGKIMQIGTGEEILTNPANDYVKTFVEDVDRAKVITAENIMIPALTTNIDVDGPSVALKKMKTEEVSSLMAVDKKRQFRGVVTSEQAIAARKNNQPLKDVMTTDVGTVSKEMLVRDILPIIYDAPTPLAVVDDNGFLKGVLIRGSVLEALADIPDEDEVEEIEKEEENK
binding result: binds
